Results reported in paper PMC2601033.

What was measured:
Assay in all cases: SPR
Details in all cases: biotin (Biotin DecaLabel); SPR: PBS + 0.05% Tween 20, 25 C, 10 ul/min, SA chip (BIAcore 3000); ELISA: DNA coated at 10 ug/ml in Reacti-bind DNA coating solution, anti-GST detection …
[1] = test system: Hi1008, GST removed (Haemophilus influenzae NCTC 8470/ATCC 9332 Pittman type D?)
[2] = test system: Ms0826, GST removed (M. succiniproducens)
[3] = test system: ComE1 (PM1665), GST removed (Pasteurella multocida NCTC 10322/ATCC 43137?)
[4] = test system: Aa1426, GST removed (Aggregatibacter (Actinobacillus) actinomycetemcomitans HK1651 (JP2 clone)?)
[5] = test system: APL_1406, GST removed (Actinobacillus pleuropneumoniae serovar 15 HS143?)

pUC19 (biotinylated)
Kd [1]: 5 µM
Kd [2]: 46 µM
Kd [3]: 7.3 µM
Kd [4]: 16 µM
Kd [5]: 4 µM
